{
  "source": "paper PMC7102495",
  "assay_in_all_cases": "FRET or BRET",
  "key": {"[1]": {"biological_target": "^NDD_(DifG)+mTurquoise2 (Bacillus amyloliquefaciens FZB42 | not stated)"}, "[2]": {"biological_target": "^NDD_(MlnC)+mTurquoise2 (Bacillus amyloliquefaciens FZB42 | not stated)"}, "[3]": {"biological_target": "^NDD_(BaeN)+mTurquoise2 (Bacillus amyloliquefaciens FZB42 | not stated)"}},
  "data": [
    {"substance": "Venus+^CDD_(DifF)", "values": [
      {"measurement": "Kd", "setting": "[1]", "result": 6.3, "unit": "µM"}
    ]},
    {"substance": "Venus+^CDD_(MlnB)", "values": [
      {"measurement": "Kd", "setting": "[2]", "result": 2.9, "unit": "µM"}
    ]},
    {"substance": "Venus+^CDD_(BaeM)", "values": [
      {"measurement": "Kd", "setting": "[3]", "result": 7.4, "unit": "µM"}
    ]}
  ]
}
